Test results as given in US11555213B2, “Nucleic acid encoding a modified homoserine dehydrogenase” (CJ CHEILJEDANG CORPORATION, priority 2018, dated 2023).

Tested on: homoserine dehydrogenase (Hom)
Assay: Measurement of activity of homoserine dehydrogenase in crude extracts, desensitization by L-threonine
Type: biochemical, Corynebacterium glutamicum
Details: 10 mM L-threonine, unlike the wild-type Hom
Protocol: The activity of the enzyme Hom was measured in the prepared strains. The wild-type strain ATCC13032 in a control group and CTR-T285I, CTR-R398Q, CTR-G378W, and CTR-G378S prepared in Example 4 were inoculated into 25 mL of the seed medium, and then cultured until reaching the late log phase. The cells were recovered by centrifugation, washed twice with a 0.1 M potassium phosphate buffer (pH 7.6), and finally suspended in 2 mL of the same buffer containing glycerol at a concentration of 30%. The cell suspension was physically disrupted by a conventional glass bead vortexing method for 10 minutes, and then the supernatant was recovered through two centrifugations (13,000 rpm, 4° C., 30 minutes) and used as a crude extract for measuring the activity of the enzyme Hom. For the measurement of the activity of Hom, a coenzyme solution (0.1 mL) was added to a reaction solution for measuring the enzyme activity (a potassium phosphate (pH 7.0) buffer, 25 mM NADPH, 5 mM aspartate semi-aldehyde), and then reacted at 30° C. The Hom activity U was defined as the number of NADPH μmol consumed per minute according to the presence of L-threonine (0 mM, 10 mM), and the results of the enzyme activity are shown in Table 2 below.

B1: T285I: Hom (SEQ ID NO: 10), threonine at position 285 mutated to isoleucine (protein)
chain: MTSASAPSFNPGKGPGSAVGIALLGFGTVGTEVMRLMTEYGDELAHRIGGPLEVRGIAVSDISKPREGVAPELLTEDAFALIEREDVDIVVEVIGGIEYPREVVLAALKAGKSVVTANKALVAAHSAELADAAEAANVDLYFEAAVAGAIPVVGPLRRSLAGDQIQSVMGIVNGTTNFILDAMDSTGADYADSLAEATRLGYAEADPTADVEGHDAASKAAILASIAFHTRVTADDVYCEGISNISAADIEAAQQAGHTIKLLAICEKFTNKEGKSAISARVHPILLPVSHPLASVNKSFNAIFVEAEAAGRLMFYGNGAGGAPTASAVLGDVVGAARNKVHGGRAPGESTYANLPIADFGETTTRYHLDMDVEDRVGVLAELASLFSEQGISLRTIRQEERDDDARLIVVTHSALESDLSRTVELLKAKPVVKAINSVIRLERD
modifications: Hom (KFCC10881-1)
inhibition of Hom activity by L-threonine (desensitization): inhibition of the activity was reduced

B2: R398Q: Hom (SEQ ID NO: 11), arginine at position 398 mutated to glutamine (protein)
chain: MTSASAPSFNPGKGPGSAVGIALLGFGTVGTEVMRLMTEYGDELAHRIGGPLEVRGIAVSDISKPREGVAPELLTEDAFALIEREDVDIVVEVIGGIEYPREVVLAALKAGKSVVTANKALVAAHSAELADAAEAANVDLYFEAAVAGAIPVVGPLRRSLAGDQIQSVMGIVNGTTNFILDAMDSTGADYADSLAEATRLGYAEADPTADVEGHDAASKAAILASIAFHTRVTADDVYCEGISNISAADIEAAQQAGHTIKLLAICEKFTNKEGKSAISARVHPTLLPVSHPLASVNKSFNAIFVEAEAAGRLMFYGNGAGGAPTASAVLGDVVGAARNKVHGGRAPGESTYANLPIADFGETTTRYHLDMDVEDRVGVLAELASLFSEQGISLRTIQQEERDDDARLIVVTHSALESDLSRTVELLKAKPVVKAINSVIRLERD
modifications: Hom (KFCC10881-14)
inhibition of Hom activity by L-threonine (desensitization): inhibition of the activity was reduced

B3: G378W: Hom (SEQ ID NO: 12), glycine at position 378 mutated to tryptophan (protein)
chain: MTSASAPSFNPGKGPGSAVGIALLGFGTVGTEVMRLMTEYGDELAHRIGGPLEVRGIAVSDISKPREGVAPELLTEDAFALIEREDVDIVVEVIGGIEYPREVVLAALKAGKSVVTANKALVAAHSAELADAAEAANVDLYFEAAVAGAIPVVGPLRRSLAGDQIQSVMGIVNGTTNFILDAMDSTGADYADSLAEATRLGYAEADPTADVEGHDAASKAAILASIAFHTRVTADDVYCEGISNISAADIEAAQQAGHTIKLLAICEKFTNKEGKSAISARVHPTLLPVSHPLASVNKSFNAIFVEAEAAGRLMFYGNGAGGAPTASAVLGDVVGAARNKVHGGRAPGESTYANLPIADFGETTTRYHLDMDVEDRVWVLAELASLFSEQGISLRTIRQEERDDDARLIVVTHSALESDLSRTVELLKAKPVVKAINSVIRLERD
modifications: Hom (KFCC10881-19)
inhibition of Hom activity by L-threonine (desensitization): inhibition of the activity was reduced

B4: G378S: Hom (SEQ ID NO: 13), glycine at position 378 mutated to serine (protein)
chain: MTSASAPSFNPGKGPGSAVGIALLGFGTVGTEVMRLMTEYGDELAHRIGGPLEVRGIAVSDISKPREGVAPELLTEDAFALIEREDVDIVVEVIGGIEYPREVVLAALKAGKSVVTANKALVAAHSAELADAAEAANVDLYFEAAVAGAIPVVGPLRRSLAGDQIQSVMGIVNGTTNFILDAMDSTGADYADSLAEATRLGYAEADPTADVEGHDAASKAAILASIAFHTRVTADDVYCEGISNISAADIEAAQQAGHTIKLLAICEKFTNKEGKSAISARVHPTLLPVSHPLASVNKSFNAIFVEAEAAGRLMFYGNGAGGAPTASAVLGDVVGAARNKVHGGRAPGESTYANLPIADFGETTTRYHLDMDVEDRVSVLAELASLFSEQGISLRTIRQEERDDDARLIVVTHSALESDLSRTVELLKAKPVVKAINSVIRLERD
modifications: Hom (KFCC10881-22)
inhibition of Hom activity by L-threonine (desensitization): inhibition of the activity was reduced
